# T1: Duffy Antigen Receptor for Chemokines (DARC) (human, UniProt Q16570 1-336)
# T1 construct: whole, on cells; also called red blood cells expressing DARC
# T1 sequence (looked up): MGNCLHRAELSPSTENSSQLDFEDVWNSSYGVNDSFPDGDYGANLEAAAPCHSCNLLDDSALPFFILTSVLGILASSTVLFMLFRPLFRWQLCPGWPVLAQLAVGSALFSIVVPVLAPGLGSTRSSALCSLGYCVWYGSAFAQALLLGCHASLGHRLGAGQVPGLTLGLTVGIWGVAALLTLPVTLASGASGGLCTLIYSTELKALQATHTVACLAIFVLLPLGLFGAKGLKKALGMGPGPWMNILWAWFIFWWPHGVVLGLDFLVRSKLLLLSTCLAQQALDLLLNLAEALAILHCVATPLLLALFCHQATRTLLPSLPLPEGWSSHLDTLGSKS
# B1: Pep2(1-14)[MIP1α] (peptide)
# peptide: DYFETSSQCSKPGV
# notes: also called Pep2[MIP1α]; peptide 2(1-15)[MIP1-α]
# B2: Pep2(1-15)[SDF1] (peptide)
# peptide: HLKILNTPNCALQIV
# notes: also called Pep2[SDF1]; peptide 2(1-15)[SDF1α]
# B3: peptide 2(1-15)[MCP-1] (peptide)
# peptide: SYRRITSSKCPKEAV
# notes: also called Pep2[MCP1]; Pep2(1-15)[MCP1]
# B4: SYRRITSSKC (peptide)
# peptide: SYRRITSSKC
# Target: T1, Duffy Antigen Receptor for Chemokines …
# Assay: ka for red blood cells divided by ka for THP-1 cells
row,Duffy selectivity,Binder
1,> 100,B1
2,< 1,B2
3,0.18,B3

# Target: T1, Duffy Antigen Receptor for Chemokines …
# Assay: DARC binding, Table 18
row,DARC binding [µM],Binder
1,19,B2
2,22,B4
3,0.1,B3

# From patent US7238711 (CAMBRIDGE ENTERPRISE, dated 2007)
